Measured values as given in patent publication US20140087995A1 (published 2014).
Numbered stars: 1 amine (or outer) side, 2 acyl side, 3 side chain; on linkers, the order of the positions; unused ones are H or OH. Bridge positions count the residues as written; N and C are the ends. Side chains are listed from the residue outwards. Ends that are not written are not given here. * marks the point of attachment. C20 diacid = O=C(O)CCCCCCCCCCCCCCCCCCC(=O)*; γGlu = O=C(O)[C@H](CCC(=O)[*:2])N[*:1]; AEEA = NCCOCCOCC(=O)O

T1: human amylin receptor (amylin 3(a) receptor: human calcitonin receptor co-expressed with RAMP-3) (human, UniProt P30988 25-474; O60896 24-148, limits assumed)
T1 sequence (looked up) 1: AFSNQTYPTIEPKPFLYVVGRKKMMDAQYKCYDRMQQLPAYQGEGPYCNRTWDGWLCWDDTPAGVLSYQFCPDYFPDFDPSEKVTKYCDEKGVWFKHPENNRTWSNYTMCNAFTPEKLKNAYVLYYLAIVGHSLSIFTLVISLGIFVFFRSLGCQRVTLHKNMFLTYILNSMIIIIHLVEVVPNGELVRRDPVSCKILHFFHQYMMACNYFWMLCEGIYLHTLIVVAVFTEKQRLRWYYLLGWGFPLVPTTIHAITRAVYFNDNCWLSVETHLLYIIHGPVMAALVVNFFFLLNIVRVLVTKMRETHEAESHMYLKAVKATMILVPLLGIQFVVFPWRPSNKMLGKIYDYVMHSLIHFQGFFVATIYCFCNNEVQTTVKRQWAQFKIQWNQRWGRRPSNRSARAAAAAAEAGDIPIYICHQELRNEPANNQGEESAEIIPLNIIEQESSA
T1 sequence (looked up) 2: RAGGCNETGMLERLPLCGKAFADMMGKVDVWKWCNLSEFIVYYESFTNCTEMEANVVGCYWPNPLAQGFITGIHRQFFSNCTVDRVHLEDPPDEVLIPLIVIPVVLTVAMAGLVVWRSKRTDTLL

T2: human calcitonin receptor (human, UniProt P30988 25-474)
T2 sequence (looked up): T1 sequence (looked up) 1

B1: N^ε1-[2-[2-[2-[[(4S)-4-carboxy-4-(19-carboxynonadecanoylamino)butanoyl]amino]ethoxy]ethoxy]acetyl]-[His14,Arg17,Pro21,Pro27]-h-amylin (peptide)
peptide: K([AEEA-γGlu-C20 diacid])CNTATCATQRLAHFLRHSSPNFGAIPSSTNVGSNTY-NH2
modifications: disulfide 2-7; N-terminus assumed
SMILES: CC[C@H](C)[C@H](NC(=O)[C@H](C)NC(=O)CNC(=O)[C@H](Cc1ccccc1)NC(=O)[C@H](CC(N)=O)NC(=O)[C@@H]1CCCN1C(=O)[C@H](CO)NC(=O)[C@H](CO)NC(=O)[C@H](Cc1c[nH]cn1)NC(=O)[C@H](CCCNC(=N)N)NC(=O)[C@H](CC(C)C)NC(=O)[C@H](Cc1ccccc1)NC(=O)[C@H](Cc1c[nH]cn1)NC(=O)[C@H](C)NC(=O)[C@H](CC(C)C)NC(=O)[C@H](CCCNC(=N)N)NC(=O)[C@H](CCC(N)=O)NC(=O)[C@@H](NC(=O)[C@H](C)NC(=O)[C@@H]1CSSC[C@H](NC(=O)[C@@H](N)CCCCNC(=O)COCCOCCNC(=O)CC[C@H](NC(=O)CCCCCCCCCCCCCCCCCCC(=O)O)C(=O)O)C(=O)N[C@@H](CC(N)=O)C(=O)N[C@@H]([C@@H](C)O)C(=O)N[C@@H](C)C(=O)N[C@@H]([C@@H](C)O)C(=O)N1)[C@@H](C)O)C(=O)N1CCC[C@H]1C(=O)N[C@@H](CO)C(=O)N[C@@H](CO)C(=O)N[C@H](C(=O)N[C@@H](CC(N)=O)C(=O)N[C@H](C(=O)NCC(=O)N[C@@H](CO)C(=O)N[C@@H](CC(N)=O)C(=O)N[C@H](C(=O)N[C@@H](Cc1ccc(O)cc1)C(N)=O)[C@@H](C)O)C(C)C)[C@@H](C)O
notes: also called compound 69
B2: N^ε1-[2-[2-[2-[[(4S)-4-carboxy-4-(19-carboxynonadecanoylamino)butanoyl]amino]ethoxy]ethoxy]acetyl]-[Thr14,Arg17,Pro21,Pro27,Pro31]-h-amylin (peptide)
peptide: K([AEEA-γGlu-C20 diacid])CNTATCATQRLATFLRHSSPNFGAIPSSTPVGSNTY-NH2
modifications: disulfide 2-7; N-terminus assumed
SMILES: CC[C@H](C)[C@H](NC(=O)[C@H](C)NC(=O)CNC(=O)[C@H](Cc1ccccc1)NC(=O)[C@H](CC(N)=O)NC(=O)[C@@H]1CCCN1C(=O)[C@H](CO)NC(=O)[C@H](CO)NC(=O)[C@H](Cc1c[nH]cn1)NC(=O)[C@H](CCCNC(=N)N)NC(=O)[C@H](CC(C)C)NC(=O)[C@H](Cc1ccccc1)NC(=O)[C@@H](NC(=O)[C@H](C)NC(=O)[C@H](CC(C)C)NC(=O)[C@H](CCCNC(=N)N)NC(=O)[C@H](CCC(N)=O)NC(=O)[C@@H](NC(=O)[C@H](C)NC(=O)[C@@H]1CSSC[C@H](NC(=O)[C@@H](N)CCCCNC(=O)COCCOCCNC(=O)CC[C@H](NC(=O)CCCCCCCCCCCCCCCCCCC(=O)O)C(=O)O)C(=O)N[C@@H](CC(N)=O)C(=O)N[C@@H]([C@@H](C)O)C(=O)N[C@@H](C)C(=O)N[C@@H]([C@@H](C)O)C(=O)N1)[C@@H](C)O)[C@@H](C)O)C(=O)N1CCC[C@H]1C(=O)N[C@@H](CO)C(=O)N[C@@H](CO)C(=O)N[C@H](C(=O)N1CCC[C@H]1C(=O)N[C@H](C(=O)NCC(=O)N[C@@H](CO)C(=O)N[C@@H](CC(N)=O)C(=O)N[C@H](C(=O)N[C@@H](Cc1ccc(O)cc1)C(N)=O)[C@@H](C)O)C(C)C)[C@@H](C)O
notes: also called compound 75
B3: N^ε1-[(4S)-4-carboxy-4-(19-carboxynonadecanoylamino)butanoyl]-[Arg14,Arg17,Pro21,Pro27,Pro34]-h-amylin (peptide)
peptide: K([γGlu-C20 diacid])CNTATCATQRLARFLRHSSPNFGAIPSSTNVGPNTY-NH2
modifications: disulfide 2-7; N-terminus assumed
SMILES: CC[C@H](C)[C@H](NC(=O)[C@H](C)NC(=O)CNC(=O)[C@H](Cc1ccccc1)NC(=O)[C@H](CC(N)=O)NC(=O)[C@@H]1CCCN1C(=O)[C@H](CO)NC(=O)[C@H](CO)NC(=O)[C@H](Cc1c[nH]cn1)NC(=O)[C@H](CCCNC(=N)N)NC(=O)[C@H](CC(C)C)NC(=O)[C@H](Cc1ccccc1)NC(=O)[C@H](CCCNC(=N)N)NC(=O)[C@H](C)NC(=O)[C@H](CC(C)C)NC(=O)[C@H](CCCNC(=N)N)NC(=O)[C@H](CCC(N)=O)NC(=O)[C@@H](NC(=O)[C@H](C)NC(=O)[C@@H]1CSSC[C@H](NC(=O)[C@@H](N)CCCCNC(=O)CC[C@H](NC(=O)CCCCCCCCCCCCCCCCCCC(=O)O)C(=O)O)C(=O)N[C@@H](CC(N)=O)C(=O)N[C@@H]([C@@H](C)O)C(=O)N[C@@H](C)C(=O)N[C@@H]([C@@H](C)O)C(=O)N1)[C@@H](C)O)C(=O)N1CCC[C@H]1C(=O)N[C@@H](CO)C(=O)N[C@@H](CO)C(=O)N[C@H](C(=O)N[C@@H](CC(N)=O)C(=O)N[C@H](C(=O)NCC(=O)N1CCC[C@H]1C(=O)N[C@@H](CC(N)=O)C(=O)N[C@H](C(=O)N[C@@H](Cc1ccc(O)cc1)C(N)=O)[C@@H](C)O)C(C)C)[C@@H](C)O
notes: also called compound 65
B4: N^ε1-[2-[2-[2-[[(4S)-4-carboxy-4-(19-carboxynonadecanoylamino)butanoyl]amino]ethoxy]ethoxy]acetyl]-[Lys14,Arg17,Pro21,Pro27,Pro31]-h-amylin (peptide)
peptide: K([AEEA-γGlu-C20 diacid])CNTATCATQRLAKFLRHSSPNFGAIPSSTPVGSNTY-NH2
modifications: disulfide 2-7; N-terminus assumed
SMILES: CC[C@H](C)[C@H](NC(=O)[C@H](C)NC(=O)CNC(=O)[C@H](Cc1ccccc1)NC(=O)[C@H](CC(N)=O)NC(=O)[C@@H]1CCCN1C(=O)[C@H](CO)NC(=O)[C@H](CO)NC(=O)[C@H](Cc1c[nH]cn1)NC(=O)[C@H](CCCNC(=N)N)NC(=O)[C@H](CC(C)C)NC(=O)[C@H](Cc1ccccc1)NC(=O)[C@H](CCCCN)NC(=O)[C@H](C)NC(=O)[C@H](CC(C)C)NC(=O)[C@H](CCCNC(=N)N)NC(=O)[C@H](CCC(N)=O)NC(=O)[C@@H](NC(=O)[C@H](C)NC(=O)[C@@H]1CSSC[C@H](NC(=O)[C@@H](N)CCCCNC(=O)COCCOCCNC(=O)CC[C@H](NC(=O)CCCCCCCCCCCCCCCCCCC(=O)O)C(=O)O)C(=O)N[C@@H](CC(N)=O)C(=O)N[C@@H]([C@@H](C)O)C(=O)N[C@@H](C)C(=O)N[C@@H]([C@@H](C)O)C(=O)N1)[C@@H](C)O)C(=O)N1CCC[C@H]1C(=O)N[C@@H](CO)C(=O)N[C@@H](CO)C(=O)N[C@H](C(=O)N1CCC[C@H]1C(=O)N[C@H](C(=O)NCC(=O)N[C@@H](CO)C(=O)N[C@@H](CC(N)=O)C(=O)N[C@H](C(=O)N[C@@H](Cc1ccc(O)cc1)C(N)=O)[C@@H](C)O)C(C)C)[C@@H](C)O
notes: also called compound 74
B5: N^ε1-[2-[2-[2-[[(4S)-4-carboxy-4-(19-carboxynonadecanoylamino)butanoyl]amino]ethoxy]ethoxy]acetyl]-[Ser14,Arg17,Pro21,Pro27,Pro31]-h-amylin (peptide)
peptide: K([AEEA-γGlu-C20 diacid])CNTATCATQRLASFLRHSSPNFGAIPSSTPVGSNTY-NH2
modifications: disulfide 2-7; N-terminus assumed
SMILES: CC[C@H](C)[C@H](NC(=O)[C@H](C)NC(=O)CNC(=O)[C@H](Cc1ccccc1)NC(=O)[C@H](CC(N)=O)NC(=O)[C@@H]1CCCN1C(=O)[C@H](CO)NC(=O)[C@H](CO)NC(=O)[C@H](Cc1c[nH]cn1)NC(=O)[C@H](CCCNC(=N)N)NC(=O)[C@H](CC(C)C)NC(=O)[C@H](Cc1ccccc1)NC(=O)[C@H](CO)NC(=O)[C@H](C)NC(=O)[C@H](CC(C)C)NC(=O)[C@H](CCCNC(=N)N)NC(=O)[C@H](CCC(N)=O)NC(=O)[C@@H](NC(=O)[C@H](C)NC(=O)[C@@H]1CSSC[C@H](NC(=O)[C@@H](N)CCCCNC(=O)COCCOCCNC(=O)CC[C@H](NC(=O)CCCCCCCCCCCCCCCCCCC(=O)O)C(=O)O)C(=O)N[C@@H](CC(N)=O)C(=O)N[C@@H]([C@@H](C)O)C(=O)N[C@@H](C)C(=O)N[C@@H]([C@@H](C)O)C(=O)N1)[C@@H](C)O)C(=O)N1CCC[C@H]1C(=O)N[C@@H](CO)C(=O)N[C@@H](CO)C(=O)N[C@H](C(=O)N1CCC[C@H]1C(=O)N[C@H](C(=O)NCC(=O)N[C@@H](CO)C(=O)N[C@@H](CC(N)=O)C(=O)N[C@H](C(=O)N[C@@H](Cc1ccc(O)cc1)C(N)=O)[C@@H](C)O)C(C)C)[C@@H](C)O
notes: also called compound 73
B6: N^ε1-[(4S)-4-carboxy-4-(19-carboxynonadecanoylamino)butanoyl]-[Arg14,Arg17,Pro21,Pro27,Pro31]-h-amylin (peptide)
peptide: K([γGlu-C20 diacid])CNTATCATQRLARFLRHSSPNFGAIPSSTPVGSNTY-NH2
modifications: disulfide 2-7; N-terminus assumed
SMILES: CC[C@H](C)[C@H](NC(=O)[C@H](C)NC(=O)CNC(=O)[C@H](Cc1ccccc1)NC(=O)[C@H](CC(N)=O)NC(=O)[C@@H]1CCCN1C(=O)[C@H](CO)NC(=O)[C@H](CO)NC(=O)[C@H](Cc1c[nH]cn1)NC(=O)[C@H](CCCNC(=N)N)NC(=O)[C@H](CC(C)C)NC(=O)[C@H](Cc1ccccc1)NC(=O)[C@H](CCCNC(=N)N)NC(=O)[C@H](C)NC(=O)[C@H](CC(C)C)NC(=O)[C@H](CCCNC(=N)N)NC(=O)[C@H](CCC(N)=O)NC(=O)[C@@H](NC(=O)[C@H](C)NC(=O)[C@@H]1CSSC[C@H](NC(=O)[C@@H](N)CCCCNC(=O)CC[C@H](NC(=O)CCCCCCCCCCCCCCCCCCC(=O)O)C(=O)O)C(=O)N[C@@H](CC(N)=O)C(=O)N[C@@H]([C@@H](C)O)C(=O)N[C@@H](C)C(=O)N[C@@H]([C@@H](C)O)C(=O)N1)[C@@H](C)O)C(=O)N1CCC[C@H]1C(=O)N[C@@H](CO)C(=O)N[C@@H](CO)C(=O)N[C@H](C(=O)N1CCC[C@H]1C(=O)N[C@H](C(=O)NCC(=O)N[C@@H](CO)C(=O)N[C@@H](CC(N)=O)C(=O)N[C@H](C(=O)N[C@@H](Cc1ccc(O)cc1)C(N)=O)[C@@H](C)O)C(C)C)[C@@H](C)O
notes: also called compound 63

Target: T1, human amylin receptor (amylin 3(a) …)
Assay: cell-based or functional assay

hAmylin-R funct. EC50 [nM]	Binder
0.094	B1
0.296	B2
0.242	B3
0.666	B4
0.085	B5
0.037	B6

Target: T2, human calcitonin receptor
Assay: cell-based or functional assay

Ratio hCT/hAmylin funct. (hCTR EC50 against hAmylin-R EC50)	hCTR funct. EC50 [nM]	Binder
13.3	1.25	B1
30.6	9.07	B2
38.6	9.33	B3
56.3	37.5	B4
11.3	0.961	B5
139	5.13	B6
